Experiment: yeast display, Sf9 membrane polyspecificity reagent, FACS + sequencing; frameworks hold sequencing errors
Summary of the method: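 Galactose-induced (36–48 hours) yeast carrying a synthetic nanobody display library were exposed to 10% biotinylated, detergent-solubilized Sf9 membrane reagent at 4 °C for 1 hour. FACS followed streptavidin microbead enrichment, using low and high (top ~1%) gates for expression (anti-HA) and reagent binding (streptavidin). Colony PCR, MiSeq 2 × 250 sequencing and CDR-length filtering followed. Labels for polyreactivity reflect the gate of origin.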

Sequence	polyreactivity (PSR sort gate)
QVQLVESGGGLVQAGGSLRLSCAASGYISFGYAMGWYRQAPGKEREFVAAISVGGGTTYYADSVKGRFTISRDNAKNTVYLQMNSLKPEDTAVYYCAGRSYSYAPRRGYWGQGTQVTVSS	high polyreactivity
QVQLVESGGGLVQAGGSLRLSCAASGYISYVNPMGWYRQAPGKERELVAAISGRGGSTYYADSVKGRFTISRDNAKNTVYLQMYSLKPEDTAVYYCAADLYYSYYWGQGTQVTVSS	low polyreactivity
QVQLVESGGGLVQAGGSLRLSCAASGYIYPPYAMRWYRQAPGKERELVATITRIGGSTYYADSVKGRLTMSRDNAKNTVDLQMNSLKPEDTAVYYCAARRDCGPYLSPENPAPMDYWGQGTQVTVSS	low polyreactivity
QVQLVESGGGLVQAGGSLRLSCAASGYIYYQYAMGWSRQAPGKERELVAGINWRGGSTYADSVKGRFTISRDNAKNTVYLQMNSLKPEDTEVYYCNAKQYRQDVFRRPSYYAYYYWGQGTQVTVSS	high polyreactivity
QVQLVESGGGLVQAGGSLRLSCAASGYIYYYNGMGWYRQAPGKERELVADISRRGGSTYYADSVKGRFTISRDNAKNTESLQMNSLKPEDTAVYYCNARARSAFSYDSWGQGTQVTVSS	high polyreactivity
QVQLVESGGGLVQAGGSLRLSCAASGYNFHDYAMGWYRQAPGKERELFAAISKRGGSTYYADSVKGRFTISRDNAKNTVYLQMNSLKPEDTAVYYCAKGGPHRGTGLNDYWGQCTQVTVSS	high polyreactivity
QVQLVESGGGLVQAGGSLRLSCAASGYNFLRNAMGWYRQAPGKERELVAAISYSGGGTYYADSVKGRFTISRDNAKNTVYLQMNSLKPEDTAVYYCNVAQRYYGNFWSESIEYDYWGLGTQVTVSS	low polyreactivity
QVQLVESGGGLVQAGGSLRLSCAASGYNFRHYVMGWYRQAPGKERELVAAITYSGGSTYYADSVKGRFTISRDNAKNTVYLQMNSLKPEDTAVYYCAARRRRSDPYDFWGQGTQVTVSS	high polyreactivity
QVQLVESGGGLVQAGGSLRLSCAASGYNFVKNAMGWYRQAPGKERELVAAISTRGGRTYYADSVKGRFTISRDNAKNTVYLQMNSLKPEDTAVYYCAAVHQTSYYDANSYGYWGQGTQVTVSS	high polyreactivity
QVQLVESGGGLVQAGGSLRLSCAASGYNFYRYAMGWYRQAPGKEMELVATIRSGGSTNYADSVKGRFTISRDNAKNTVYLQMNSLKPEDTAVYYCAKVRGWYDPYTYGYSEYGYWGQGTQVTVSS	low polyreactivity
QVQLVESGGGLVQAGGSLRLSCAASGYSFKSYVMGWYSQAPGKERELVAAITWSGGSTYYADSVKGRFTLSRDNAKNTVFLQMHSLKPEDTAVYYCAAYPRRYRTTYDYWGQGTQVTVSS	high polyreactivity
QVQLVESGGGLVQAGGSLRLSCAASGYTCGPYAMGWYRQAPGKERELVAAITTRGGSTYYADSVKGRFTISRDNAKNTVYLQMNSLKPEDTAVYYCAAVVNSKSIQRVVRYYYWGQGTQVTVSS	high polyreactivity
QVQLVESGGGLVQAGGSLRLSCAASGYTFAFYAMGWYRQAPGKERELVAAISAGGGRTYYADSVKGRFTISRDNAKNTVYLQMNSLKPEDTAVYYCATDLIQGAAPFRYDYWGQGTQVTVSS	low polyreactivity
QVQLVESGGGLVQAGGSLRLSCAASGYTFAGNAMGWYRQAPGKERELVAAISRSGGRTYYAVSVKGRFTISRDNAKNTVYLQMNSLKPEDTAVYYCAAYFPRTLFEFGYWGQGTQVTVSS	high polyreactivity
QVQLVESGGGLVQAGGSLRLSCAASGYTFAGNAMGWYRQATGKERELVAAISRSGGRTYYADSVKGRFTISRDNAKNTVYLQMNSLKPEDTAVYYCAAYFPRTLFEFGYWGQGTQVTVSS	high polyreactivity
QVQLVESGGGLVQAGGSLRLSCAASGYTFDAYAMGWYRQAPGKERELVAAITTNGGSTYYADSVKGRFTISRDNAKNTVYLQMNSLKPEDTAVYYCNAEYWYEGRYPYDYWGQGTQVTVSS	low polyreactivity
QVQLVESGGGLVQAGGSLRLSCAASGYTFDRYAMGWYRQAPGKERELVAVISRSGATTYYADSVKGRFTISRDNAKNTVYLQMNSLKPEDTAVYYCAARNPSGKGRYDYWGQGTQVTVSS	high polyreactivity
QVQLVESGGGLVQAGGSLRLSCAASGYTFDTKAMGWYRLAPGKERELVAAISRIGGRTYADSVKGRFTISRDNAKNTVYLQMNSLKPEDTAVYYGAADTTWYPYGYDSWGQGTPVTVSS	low polyreactivity
QVQLVESGGGLVQAGGSLRLSCAASGYTFESYTMGWYRQAPGKEREFVAVISSSDTSTSYADSVKGRFTISRDNAKNTVYLQMNSLKPEDTAVYYCAAYSSPYYITYYWYNYDYWGQGTQVTVSS	low polyreactivity
QVQLVESGGGLVQAGGSLRLSCAASGYTFEVYAMGWYRQAPGKERELVADITTRTGNTYYADSVKGRFTISRDNAKNTVYLQMNSLKPEDTAVYYCAADLQRYWWWYEYWGQGTQVTVSS	high polyreactivity

Sequence	polyreactivity (PSR sort gate)
QVQLVESGGGLVQAGGSLRLSCAASGYTFEYYAMGWYRQAPGKERELVAAISWSGGDTYYADSVKGRFTISRDNAKNTVYLQMNSLKPEDTAVYYCNADLYNYFYYANWYGAYDYWGQGTQVTVSS	low polyreactivity
QVQLVESGGGLVQAGGSLRLSCAASGYTFFYMGSYRQAPGKEREFVAVITYSGGSTYYADSVKGRFTISRDNAKNTVYLQLNSLKPEDTAVYYCAAAVWHYGRPGYLDSGYDYWGQGTQVTVSS	low polyreactivity
QVQLVESGGGLVQAGGSLRLSCAASGYTFGAYAMGWYRQAPGKERELVAAIPVRAGRTYYADSVKGRFTISRDNAKNTVYLQMNSLKPEDTAVYYCARRNPLGGNEHDYWGQGTQVTVSS	low polyreactivity
QVQLVESGGGLVQAGGSLRLSCAASGYTFGDYAMGWYRQAPGKERELVASITQTGGSTYADSVKGRFTISRDNAKNTVYLQMNSLKPEDTAVYYCNARYPWWESLRQTDRGKGFDYWGQGTQVTVSS	low polyreactivity
QVQLVESGGGLVQAGGSLRLSCAASGYTFGVYVMGWYRQAPGKERELVAAISGSTYYADSVKGRFTISRDNAKNTVYLQMNSLKPEDTAVYYCNADYYRSVLIIGVYEYDYWGQGTHVTVSS	low polyreactivity
QVQLVESGGGLVQAGGSLRLSCAASGYTFGYYAMGWYRQAPGKERELVAAISYSGGTTYYADSVKGRFTISRDNAKNTVYLQMNSLKPEDTAVYYCNKRYWVRTGKVSSYDYWGQGTQVTVSS	high polyreactivity
QVQLVESGGGLVQAGGSLRLSCAASGYTFHGYAMGWYRQAPGKERELVAVITQRGGSTSYADSVKGRFTISRDNAKNTVYLQMNSLKPEDTAVYYCEYYYWGQGTQVTVSS	low polyreactivity
QVQLVESGGGLVQAGGSLRLSCAASGYTFHGYAMGWYRQAPGKERELVAVITQRGGSTYYADSVKGRFTISRDNAKNTVYLQMNSLKPEDTAVYYCAARYAGPSPTDTGHDYWGQGTQVTVSS	low polyreactivity
QVQLVESGGGLVQAGGSLRLSCAASGYTFHGYAMGWYRQAPGKESELVAVITQRGGSTSYADSVKGRFTISRDNAKITVYLQMNSLKPEDTAVYYCNASAWLVVARTRYGYWGQGTQVTVSS	low polyreactivity
QVQLVESGGGLVQAGGSLRLSCAASGYTFHGYSMGWYRKAPGKERELVAVITQRGGSTSYADSVKGRFTISRDNAKNTVYLQMNSLKPEDTAVYYCNASAWLVVARTRYGYWGQGTQVTVSS	low polyreactivity
QVQLVESGGGLVQAGGSLRLSCAASGYTFHHNTMGWYRQAPGKERELVATISDGGSTNYADSVKGRFTISRDNAKNTVYLQMNSLKPEDTAVYYCAALYQQFQSALVPYFDVIEEDYWGQGTQVTVSS	low polyreactivity
QVQLVESGGGLVQAGGSLRLSCAASGYTFIGYAMGWYRQAPGKERELVAAISWSVGRTYYADSVKGRFTISRDNAKNTVYLQMNSLKPEDTAVYYCNAVSSFYYCYDYWGQVTQVTVSS	low polyreactivity
QVQLVESGGGLVQAGGSLRLSCAASGYTFINYAMGWYRQAPGKERELVAAITSTGSRTYYADSVKGRFTITRDNAKNTVYLQMNSLKPEDPAVYYCAAQVDRKYRWFNSWGQGTQVNVSS	high polyreactivity
QVQLVESGGGLVQAGGSLRLSCAASGYTFKAYAMGWYRQAPGKERELVAGISRSGGSTYYADSVKGRFTISRDNAKNTVYLQMNSLKPEDTAVYYCAADSFSWETVVPSVFEFDYWGQGTQVTVSS	low polyreactivity
QVQLVESGGGLVQAGGSLRLSCAASGYTFKAYAMGWYRQAPGKERELVGGISRSGGSTYYADSVKGRFTISRDNAKNTVYLQMNSLKPEDTAVYYCAADSFSWETVVPSVFEFDYWGQGTQGTVSS	low polyreactivity
QVQLVESGGGLVQAGGSLRLSCAASGYTFKTYAMGWYRQAPGKERELVAAIRTSGGSTYYADSVKGRFTISRDNAKNTVYLQMNSLKPEDTAVYYCAAAFNYYGSLYDYWGQGTQVTVSS	high polyreactivity
QVQLVESGGGLVQAGGSLRLSCAASGYTFLAYAMGWYRQAPGKERELVAAISRSGVSTYYADSVKGRFTISRDNAKNTVYLQMNILKPEDTAFYYCAKGVRYQQYHIMYYWGQGTQVTVSS	high polyreactivity
QVQLVESGGGLVQAGGSLRLSCAASGYTFLVYTKGWYRQAPGKERELVATISWSGTSTDYADSVKGRFTISRDNAKNTVYLQMNSLKPEDTAVYYCNAKYPRAYLYGYKLFDSWGQGTQVTVSS	high polyreactivity
QVQLVESGGGLVQAGGSLRLSCAASGYTFNWYAMGWYRQAPGKERELVAAISWRSGRTYYADSVKGRFTISRDNAKNTVYLQMNSLKPEDTAVYYCAVTTTSGAPGGSYYYWGQGTQVTVSS	high polyreactivity
QVQLVESGGGLVQAGGSLRLSCAASGYTFNYYAMGWYRQAPGKERELVAAISASSDSTYYADSVKGRFTISRDNAKNTVYLQMNSLNPEDTAVYYCAAVSGRYRIYRYDYWGQGTQVTVSS	low polyreactivity
